Measurements: patent US20190211317A1, “PEPTIDES AND NANOPARTICLES FOR INTRACELLULAR DELIVERY OF GENOME-EDITING MOLECULES” (Aadigen, LLC, priority 2016, published 2019)
Non-standard residues stand in square brackets, D forms with d. No end group written: not given here. βAla = NCCC(=O)O

Target: CY5 fluorescently labeled CAS9 protein (S. pyogenes), Q99ZW2
Experiment: fluorescence titration of 5 nM CY5-CAS9 with increasing peptide, quadratic fit
Conditions: remark: other sources report otherwise

Sequence of CY5 fluorescently labeled CAS9 protein (S. pyogenes), Q99ZW2 (Q99ZW2 whole entry): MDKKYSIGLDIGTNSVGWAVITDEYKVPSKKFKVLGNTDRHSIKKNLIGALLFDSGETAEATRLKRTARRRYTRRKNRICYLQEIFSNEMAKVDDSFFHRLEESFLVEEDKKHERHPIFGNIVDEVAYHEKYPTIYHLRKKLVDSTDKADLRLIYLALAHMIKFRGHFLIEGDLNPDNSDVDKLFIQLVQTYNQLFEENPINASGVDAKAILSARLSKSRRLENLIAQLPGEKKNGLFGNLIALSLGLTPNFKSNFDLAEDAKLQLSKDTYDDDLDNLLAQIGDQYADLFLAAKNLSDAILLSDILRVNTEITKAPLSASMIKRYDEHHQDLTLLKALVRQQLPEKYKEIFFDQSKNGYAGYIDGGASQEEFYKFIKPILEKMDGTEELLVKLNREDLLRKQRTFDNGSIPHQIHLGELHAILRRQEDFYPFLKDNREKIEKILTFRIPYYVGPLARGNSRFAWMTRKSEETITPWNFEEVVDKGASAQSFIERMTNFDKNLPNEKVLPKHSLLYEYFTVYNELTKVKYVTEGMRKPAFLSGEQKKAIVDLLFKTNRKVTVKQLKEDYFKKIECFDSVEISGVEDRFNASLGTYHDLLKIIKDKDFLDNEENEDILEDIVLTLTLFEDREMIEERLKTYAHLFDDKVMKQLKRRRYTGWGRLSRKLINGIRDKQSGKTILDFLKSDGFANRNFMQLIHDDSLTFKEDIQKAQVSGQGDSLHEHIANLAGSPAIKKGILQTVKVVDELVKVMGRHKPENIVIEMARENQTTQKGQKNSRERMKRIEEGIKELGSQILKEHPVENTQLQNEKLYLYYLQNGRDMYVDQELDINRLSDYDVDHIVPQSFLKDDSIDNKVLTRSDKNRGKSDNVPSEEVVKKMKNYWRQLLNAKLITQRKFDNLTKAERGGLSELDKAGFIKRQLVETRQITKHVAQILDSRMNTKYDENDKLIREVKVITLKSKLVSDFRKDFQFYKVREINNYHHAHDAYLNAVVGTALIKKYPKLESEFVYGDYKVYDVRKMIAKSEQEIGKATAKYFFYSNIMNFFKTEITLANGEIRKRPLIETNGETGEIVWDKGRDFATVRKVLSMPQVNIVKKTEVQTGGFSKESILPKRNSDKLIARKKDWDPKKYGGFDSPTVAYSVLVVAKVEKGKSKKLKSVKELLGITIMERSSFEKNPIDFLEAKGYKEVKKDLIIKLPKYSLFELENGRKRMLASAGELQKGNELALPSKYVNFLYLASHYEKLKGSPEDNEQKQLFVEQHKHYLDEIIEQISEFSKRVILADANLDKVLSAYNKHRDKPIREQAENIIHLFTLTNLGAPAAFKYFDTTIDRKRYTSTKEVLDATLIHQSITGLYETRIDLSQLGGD

Binder | Kd [µM]
[βAla]LWRALWRLWRSLWRLLWKA (also: acetate salt) [VEPEP-6] | > 0.1
GLWRALWRLLRSLWRLLWKV (also: acetate salt) [CADY] | > 0.1
